Experimental data: the supplement of paper PMC10567573

B1: MYBL2 (parent)
chain: IAKHLKGRLGKQCRERWHNHLNPE
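Note: lentivirally expressed fusions sorted by FACS into six bins by GFP to DsRed ratio, PSI derived from sequencing read proportions per bin multiplied by bin number.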

Variants of: B1
Test: protein stability index of a GFP-peptide fusion (GPS, HEK-293T) (PSI 1-6); higher = more stable
Conditions: c terminus: a fixed tail appended
With IAKHLKGRLGNQCRERWHNHLNPE the protein stability index was 2.43. Variant IAKHLKGRLGKQCRERWINHLNPE has a protein stability index of 2.73. IAKHLKGRLGKQCRERWFNHLNPE showed a protein stability index of 2.24. For IAKHLKGRLGKQCRERWDNHLNPE, the protein stability index was 1.85. IAKHLKGRLGKQCRERWPNHLNPE showed a protein stability index of 1.9. For IAKHLKGRLGKQCRERWCNHLNPE, the protein stability index was 1.8. IAKHLKGRLGKQCRERWENHLNPE showed a protein stability index of 1.82. Variant IAKHLKGRLGKQCRERWNNHLNPE has a protein stability index of 2.33. In the case of IAKHLKGRLGKQCRERWRNHLNPE, the protein stability index is reported as 1.56. In the case of IAKHLKGRLGKQCRERWKNHLNPE, the protein stability index is reported as 2.87. Work on IAKHLKGRLGKQCRERWTNHLNPE yielded a protein stability index of 2.97. With IAKHLKGRLGKQCRERWYNHLNPE the protein stability index was 1.67. In the case of IAKHLKGRLGKQCRERWQNHLNPE, the protein stability index is reported as 2.43. IAKHLKGRLGKQCRERWLNHLNPE showed a protein stability index of 1.55. For IAKHLKGRLGKQCRERWGNHLNPE, the protein stability index was 1.85. Work on IAKHLKGRLGKQCRERWVNHLNPE yielded a protein stability index of 1.1. In the case of IAKHLKGRLGKQCRERWANHLNPE, the protein stability index is reported as 1.61. For IAKHLKGRLGKQCRERWSNHLNPE, the protein stability index was 1.47. With IAKHLKGRLGKQCRERWHQHLNPE the protein stability index was 2.02. In the case of IAKHLKGRLGKQCRERWHSHLNPE, the protein stability index is reported as 1.91. With IAKHLKGRLGKQCRERWHAHLNPE the protein stability index was 1.41. For IAKHLKGRLGKQCRERWHMHLNPE, the protein stability index was 1.63. Variant IAKHLKGRLGKQCRERWHRHLNPE has a protein stability index of 2.31. IAKHLKGRLGKQCRERWHFHLNPE showed a protein stability index of 2.58. Variant IAKHLKGRLGKQCRERWHYHLNPE has a protein stability index of 3.59. IAKHLKGRLGKQCRERWHTHLNPE showed a protein stability index of 1.9. In the case of IAKHLKGRLGKQCRERWHDHLNPE, the protein stability index is reported as 2.05. Work on IAKHLKGRLGKQCRERWHPHLNPE yielded a protein stability index of 1.02. With IAKHLKGRLGKQCRERWHLHLNPE the protein stability index was 2.63. IAKHLKGRLGKQCRERWHVHLNPE showed a protein stability index of 2.05. Variant IAKHLKGRLGKQCRERWHEHLNPE has a protein stability index of 2.24. IAKHLKGRLGKQCRERWHGHLNPE gave a protein stability index of 2.8. In the case of IAKHLKGRLGKQCRERWHIHLNPE, the protein stability index is reported as 3.11. Variant IAKHLKGRLGKQCRERWHWHLNPE has a protein stability index of 2.24. In the case of IAKHLKGRLGKQCRERWHCHLNPE, the protein stability index is reported as 1.54. Work on IAKHLKGRLGKQCRERWHHHLNPE yielded a protein stability index of 1.73. In the case of IAKHLKGRLGKQCRERWHKHLNPE, the protein stability index is reported as 1.72. For IAKHLKGRLGKDCRERWHNHLNPE, the protein stability index was 1.93. IAKHLKGRLGKACRERWHNHLNPE gave a protein stability index of 1.29. Variant IAKHLKGRLGKGCRERWHNHLNPE has a protein stability index of 3.02. IAKHLKGRLGKHCRERWHNHLNPE showed a protein stability index of 2.38. For IAKHLKGRLGKWCRERWHNHLNPE, the protein stability index was 1.93. IAKHLKGRLGKVCRERWHNHLNPE gave a protein stability index of 1.61. In the case of IAKHLKGRLGKCCRERWHNHLNPE, the protein stability index is reported as 2.53. IAKHLKGRLGKICRERWHNHLNPE showed a protein stability index of 2.97. With IAKHLKGRLGKMCRERWHNHLNPE the protein stability index was 1.92. With IAKHLKGRLGKRCRERWHNHLNPE the protein stability index was 2.44. IAKHLKGRLGKKCRERWHNHLNPE showed a protein stability index of 1.51. With IAKHLKGRLGKPCRERWHNHLNPE the protein stability index was 1.54. IAKHLKGRLGKYCRERWHNHLNPE showed a protein stability index of 2.33. IAKHLKGRLGKSCRERWHNHLNPE showed a protein stability index of 2.77. IAKHLKGRLGKFCRERWHNHLNPE showed a protein stability index of 2.08. In the case of IAKHLKGRLGKECRERWHNHLNPE, the protein stability index is reported as 1.92. Variant IAKHLKGRLGKTCRERWHNHLNPE has a protein stability index of 1.55. Work on IAKHLKGRLGKLCRERWHNHLNPE yielded a protein stability index of 2.32. For IAKHLKGRLGKNCRERWHNHLNPE, the protein stability index was 1.38. With IAKHLKGRLGKQMRERWHNHLNPE the protein stability index was 2.01. IAKHLKGRLGKQLRERWHNHLNPE gave a protein stability index of 1.87. For IAKHLKGRLGKQQRERWHNHLNPE, the protein stability index was 1.96. IAKHLKGRLGKQRRERWHNHLNPE gave a protein stability index of 2.3. In the case of IAKHLKGRLGKQHRERWHNHLNPE, the protein stability index is reported as 2.33. IAKHLKGRLGKQGRERWHNHLNPE gave a protein stability index of 2.54. IAKHLKGRLGKQYRERWHNHLNPE gave a protein stability index of 1.64. IAKHLKGRLGKQKRERWHNHLNPE showed a protein stability index of 2.34. In the case of IAKHLKGRLGKQVRERWHNHLNPE, the protein stability index is reported as 1.97. IAKHLKGRLGKQWRERWHNHLNPE showed a protein stability index of 2.19. IAKHLKGRLGKQDRERWHNHLNPE showed a protein stability index of 2.57. For IAKHLKGRLGKQTRERWHNHLNPE, the protein stability index was 2.08. With IAKHLKGRLGKQARERWHNHLNPE the protein stability index was 2.55. IAKHLKGRLGKQSRERWHNHLNPE showed a protein stability index of 2.14. Work on IAKHLKGRLGKQNRERWHNHLNPE yielded a protein stability index of 3.21. IAKHLKGRLGKQERERWHNHLNPE showed a protein stability index of 2.68. IAKHLKGRLGKQFRERWHNHLNPE showed a protein stability index of 1.65. For IAKHLKGRLGKQPRERWHNHLNPE, the protein stability index was 2.57. Variant IAKHLKGRLGKQIRERWHNHLNPE has a protein stability index of 2.58. In the case of IAKHLKGRLGKQCRWRWHNHLNPE, the protein stability index is reported as 3.6. Work on IAKHLKGRLGKQCRGRWHNHLNPE yielded a protein stability index of 1.9. IAKHLKGRLGKQCRPRWHNHLNPE showed a protein stability index of 1.63. IAKHLKGRLGKQCRKRWHNHLNPE gave a protein stability index of 2.18. IAKHLKGRLGKQCRIRWHNHLNPE gave a protein stability index of 1.96. IAKHLKGRLGKQCRDRWHNHLNPE gave a protein stability index of 1.73. For IAKHLKGRLGKQCRCRWHNHLNPE, the protein stability index was 2.38. IAKHLKGRLGKQCRRRWHNHLNPE showed a protein stability index of 1.96. For IAKHLKGRLGKQCRFRWHNHLNPE, the protein stability index was 2.26. For IAKHLKGRLGKQCRTRWHNHLNPE, the protein stability index was 2.5. IAKHLKGRLGKQCRLRWHNHLNPE gave a protein stability index of 2.48. IAKHLKGRLGKQCRARWHNHLNPE gave a protein stability index of 2.17. With IAKHLKGRLGKQCRYRWHNHLNPE the protein stability index was 2.12. IAKHLKGRLGKQCRMRWHNHLNPE gave a protein stability index of 3.02. IAKHLKGRLGKQCRQRWHNHLNPE gave a protein stability index of 1.49. For IAKHLKGRLGKQCRVRWHNHLNPE, the protein stability index was 2.12. IAKHLKGRLGKQCRHRWHNHLNPE gave a protein stability index of 1.25. For IAKHLKGRLGKQCRNRWHNHLNPE, the protein stability index was 1.69. IAKHLKGRLGKQCRSRWHNHLNPE showed a protein stability index of 1.23.
